Literature values in paper PMC5860782.

Target: clathrin light chain (Saccharomyces cerevisiae) (UniProt P17891)
Chain of UniProt P17891 (P17891 whole entry): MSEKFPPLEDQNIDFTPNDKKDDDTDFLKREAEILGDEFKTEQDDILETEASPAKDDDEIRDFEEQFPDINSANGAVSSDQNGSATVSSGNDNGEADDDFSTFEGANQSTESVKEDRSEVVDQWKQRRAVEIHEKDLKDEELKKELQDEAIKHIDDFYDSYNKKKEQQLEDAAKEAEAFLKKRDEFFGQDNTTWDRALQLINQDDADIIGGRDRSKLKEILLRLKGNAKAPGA

Kd: 1 nM
Substance: clathrin heavy chain (from UniProt P22137)
